Experimental data: patent US20220332804A1 (CSL INNOVATION, published 2022)

Columns and labels:
Test in all cases: SPR, antibody captured, C2 as analyte;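 also: biacore SPR at 37 °C, anti-C2 mAbs captured via goat anti-human IgG on CM5 chips, double-referenced sensorgrams fit to a 1:1 kinetic or steady-state model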
human C2 N268A = target: T1, human C2 N268A (human, UniProt P06681 21-752)
T1 sequence: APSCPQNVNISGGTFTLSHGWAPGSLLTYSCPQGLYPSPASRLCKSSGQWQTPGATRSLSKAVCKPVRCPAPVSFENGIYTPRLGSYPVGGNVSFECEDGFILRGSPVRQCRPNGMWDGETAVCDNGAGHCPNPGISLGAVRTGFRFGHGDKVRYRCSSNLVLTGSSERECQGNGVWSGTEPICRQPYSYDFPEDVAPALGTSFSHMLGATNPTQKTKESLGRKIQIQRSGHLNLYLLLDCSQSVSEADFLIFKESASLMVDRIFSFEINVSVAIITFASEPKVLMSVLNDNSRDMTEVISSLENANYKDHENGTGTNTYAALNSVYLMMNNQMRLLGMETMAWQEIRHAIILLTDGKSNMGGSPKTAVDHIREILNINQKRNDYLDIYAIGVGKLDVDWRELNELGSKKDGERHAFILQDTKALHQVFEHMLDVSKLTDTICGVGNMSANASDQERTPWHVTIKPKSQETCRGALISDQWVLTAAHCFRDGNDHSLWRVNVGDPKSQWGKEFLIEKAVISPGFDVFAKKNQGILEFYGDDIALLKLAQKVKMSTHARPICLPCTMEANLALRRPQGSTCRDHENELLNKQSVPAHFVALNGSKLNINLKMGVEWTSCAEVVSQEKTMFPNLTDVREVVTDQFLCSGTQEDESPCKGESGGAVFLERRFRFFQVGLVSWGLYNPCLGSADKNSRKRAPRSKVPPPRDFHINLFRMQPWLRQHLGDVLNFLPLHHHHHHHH

human C2 A444S = target: T2, human C2 A444S (human, UniProt P06681 21-752)
T2 sequence: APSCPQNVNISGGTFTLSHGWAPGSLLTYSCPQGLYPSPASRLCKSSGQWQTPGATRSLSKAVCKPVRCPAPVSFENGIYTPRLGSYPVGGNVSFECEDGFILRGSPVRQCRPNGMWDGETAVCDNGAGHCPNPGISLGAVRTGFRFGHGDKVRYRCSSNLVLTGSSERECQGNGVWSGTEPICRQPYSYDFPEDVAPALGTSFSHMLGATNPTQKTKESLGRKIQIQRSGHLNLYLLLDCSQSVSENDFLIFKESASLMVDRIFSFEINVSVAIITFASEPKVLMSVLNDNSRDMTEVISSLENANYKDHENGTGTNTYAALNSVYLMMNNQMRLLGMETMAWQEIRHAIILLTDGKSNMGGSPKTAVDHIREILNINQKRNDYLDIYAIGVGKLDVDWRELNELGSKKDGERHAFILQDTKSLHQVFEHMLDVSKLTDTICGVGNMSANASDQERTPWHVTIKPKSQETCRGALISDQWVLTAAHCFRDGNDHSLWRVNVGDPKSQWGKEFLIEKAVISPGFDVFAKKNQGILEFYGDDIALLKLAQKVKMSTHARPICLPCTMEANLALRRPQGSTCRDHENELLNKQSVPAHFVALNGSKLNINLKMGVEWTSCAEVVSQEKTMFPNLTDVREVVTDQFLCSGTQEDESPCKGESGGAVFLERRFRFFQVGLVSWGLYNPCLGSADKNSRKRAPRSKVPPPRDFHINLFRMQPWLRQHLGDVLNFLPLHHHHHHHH

human C2 P486A = target: T3, human C2 P486A (human, UniProt P06681 21-752)
T3 sequence: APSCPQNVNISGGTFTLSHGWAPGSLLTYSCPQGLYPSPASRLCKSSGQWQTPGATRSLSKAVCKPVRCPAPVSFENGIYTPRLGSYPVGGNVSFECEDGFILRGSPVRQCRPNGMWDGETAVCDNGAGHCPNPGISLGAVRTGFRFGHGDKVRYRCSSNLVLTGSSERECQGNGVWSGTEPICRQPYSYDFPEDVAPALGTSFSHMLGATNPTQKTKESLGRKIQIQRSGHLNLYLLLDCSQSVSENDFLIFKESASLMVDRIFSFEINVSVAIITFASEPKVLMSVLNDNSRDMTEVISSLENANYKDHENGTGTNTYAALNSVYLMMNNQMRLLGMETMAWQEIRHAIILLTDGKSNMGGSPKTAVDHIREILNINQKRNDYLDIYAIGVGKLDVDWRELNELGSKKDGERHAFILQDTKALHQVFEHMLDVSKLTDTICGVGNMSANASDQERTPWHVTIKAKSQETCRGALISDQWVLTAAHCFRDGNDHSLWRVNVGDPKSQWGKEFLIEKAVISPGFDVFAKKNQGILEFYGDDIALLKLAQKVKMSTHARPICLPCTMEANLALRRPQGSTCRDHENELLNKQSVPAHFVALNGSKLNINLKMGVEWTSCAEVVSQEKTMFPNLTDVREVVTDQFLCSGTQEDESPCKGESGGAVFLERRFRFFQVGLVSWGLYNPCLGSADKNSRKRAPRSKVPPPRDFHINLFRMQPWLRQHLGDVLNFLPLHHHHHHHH

human C2 V465A = target: T4, human C2 V465A (human, UniProt P06681 21-752)
T4 sequence: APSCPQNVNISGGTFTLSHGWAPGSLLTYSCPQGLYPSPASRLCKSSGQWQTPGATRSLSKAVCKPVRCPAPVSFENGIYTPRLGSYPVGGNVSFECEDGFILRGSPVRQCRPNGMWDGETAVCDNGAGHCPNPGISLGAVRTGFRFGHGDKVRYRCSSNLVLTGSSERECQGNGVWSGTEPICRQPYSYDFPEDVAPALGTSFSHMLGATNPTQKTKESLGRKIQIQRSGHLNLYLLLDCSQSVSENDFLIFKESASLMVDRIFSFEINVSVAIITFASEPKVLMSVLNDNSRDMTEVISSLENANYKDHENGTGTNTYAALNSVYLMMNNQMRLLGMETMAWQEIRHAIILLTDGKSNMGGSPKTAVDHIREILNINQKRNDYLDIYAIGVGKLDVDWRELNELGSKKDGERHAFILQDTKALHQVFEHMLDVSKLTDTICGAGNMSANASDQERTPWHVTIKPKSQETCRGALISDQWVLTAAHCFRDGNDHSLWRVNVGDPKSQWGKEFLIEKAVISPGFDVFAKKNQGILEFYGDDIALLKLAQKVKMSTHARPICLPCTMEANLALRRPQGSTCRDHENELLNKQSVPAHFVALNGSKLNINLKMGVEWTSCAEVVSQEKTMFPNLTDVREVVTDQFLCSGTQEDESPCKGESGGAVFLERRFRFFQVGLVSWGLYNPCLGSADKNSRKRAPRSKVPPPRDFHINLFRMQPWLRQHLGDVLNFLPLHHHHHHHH

B1: RF16-226 (antibody, human IgG4 S228P, lambda)
heavy: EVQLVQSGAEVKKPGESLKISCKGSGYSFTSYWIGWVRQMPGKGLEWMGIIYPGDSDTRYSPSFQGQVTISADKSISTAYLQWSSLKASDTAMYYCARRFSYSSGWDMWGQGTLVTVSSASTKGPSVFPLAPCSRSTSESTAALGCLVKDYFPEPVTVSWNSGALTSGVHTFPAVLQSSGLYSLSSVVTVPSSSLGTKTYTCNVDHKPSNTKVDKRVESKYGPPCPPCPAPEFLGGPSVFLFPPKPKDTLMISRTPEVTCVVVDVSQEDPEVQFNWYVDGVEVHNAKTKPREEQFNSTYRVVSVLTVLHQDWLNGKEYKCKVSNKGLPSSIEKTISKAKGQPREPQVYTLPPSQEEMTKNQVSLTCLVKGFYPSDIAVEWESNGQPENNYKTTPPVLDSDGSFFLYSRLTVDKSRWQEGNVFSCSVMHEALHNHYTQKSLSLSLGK
light: SYELTQPPSVSVSPGQTARITCSGDALTSKYVAWYQQKSGLAPLLVIYEDTRRPSGIPAKFSGSSSGSVATLTISGAHGDDEADYYCYSTDASGHQRVFGGGTKLTVLSQPKAAPSVTLFPPSSEELQANKATLVCLISDFYPGAVTVAWKADGSPVKAGVETTKPSKQSNNKYAASSYLSLTPEQWKSHRSYSCQVTHEGSTVEKTVAPTECS
notes: pH-dependent anti-C2 antibody from a phage display library; also called WT
**Q.** Which Kd (human C2 N268A) does the source give for B1 here?
**A.** The Kd was 11.8 nM.

**Q.** What about the Kd (human C2 A444S) of the same binder?
**A.** Its Kd is 19.8 nM.

**Q.** What about the Kd (human C2 P486A) of the same binder?
**A.** Its Kd is 11.1 nM.

**Q.** What about the Kd (human C2 V465A) of the same binder?
**A.** The Kd was 17.1 nM.
